Like-named read-outs stand apart in the source and are kept apart here.
Tests used:
Test in all cases: cell-based or functional assay
[1] = molecular target: human IL27 receptor (IL27Ra and gp130) on NCI-H929/GAS-Luc cells (human) (UniProt Q6UWB1)
[2] = molecular target: T1, murine IL27 receptor (IL27Ra and gp130) on mouse cells (MC9/STAT3-Luc reporter cells; splenic CD4+ T cells) (mouse, UniProt O70394 25-623; Q00560 23-917)
T1 sequence (looked up) 1: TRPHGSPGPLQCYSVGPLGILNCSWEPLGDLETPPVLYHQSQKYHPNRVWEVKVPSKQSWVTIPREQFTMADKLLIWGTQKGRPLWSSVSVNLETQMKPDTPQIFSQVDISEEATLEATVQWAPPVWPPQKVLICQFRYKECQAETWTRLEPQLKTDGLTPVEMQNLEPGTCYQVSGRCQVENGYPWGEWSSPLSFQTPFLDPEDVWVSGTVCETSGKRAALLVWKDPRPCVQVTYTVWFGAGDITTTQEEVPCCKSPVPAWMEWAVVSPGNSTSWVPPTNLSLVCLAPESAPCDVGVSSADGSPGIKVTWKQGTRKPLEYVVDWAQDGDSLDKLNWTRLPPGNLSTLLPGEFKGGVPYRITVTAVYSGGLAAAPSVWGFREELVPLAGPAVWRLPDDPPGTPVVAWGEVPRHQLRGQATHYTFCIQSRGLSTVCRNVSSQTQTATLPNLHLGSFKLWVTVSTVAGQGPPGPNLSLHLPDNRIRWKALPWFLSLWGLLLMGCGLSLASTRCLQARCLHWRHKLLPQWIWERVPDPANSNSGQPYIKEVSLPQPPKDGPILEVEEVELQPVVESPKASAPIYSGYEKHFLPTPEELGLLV
T1 sequence (looked up) 2: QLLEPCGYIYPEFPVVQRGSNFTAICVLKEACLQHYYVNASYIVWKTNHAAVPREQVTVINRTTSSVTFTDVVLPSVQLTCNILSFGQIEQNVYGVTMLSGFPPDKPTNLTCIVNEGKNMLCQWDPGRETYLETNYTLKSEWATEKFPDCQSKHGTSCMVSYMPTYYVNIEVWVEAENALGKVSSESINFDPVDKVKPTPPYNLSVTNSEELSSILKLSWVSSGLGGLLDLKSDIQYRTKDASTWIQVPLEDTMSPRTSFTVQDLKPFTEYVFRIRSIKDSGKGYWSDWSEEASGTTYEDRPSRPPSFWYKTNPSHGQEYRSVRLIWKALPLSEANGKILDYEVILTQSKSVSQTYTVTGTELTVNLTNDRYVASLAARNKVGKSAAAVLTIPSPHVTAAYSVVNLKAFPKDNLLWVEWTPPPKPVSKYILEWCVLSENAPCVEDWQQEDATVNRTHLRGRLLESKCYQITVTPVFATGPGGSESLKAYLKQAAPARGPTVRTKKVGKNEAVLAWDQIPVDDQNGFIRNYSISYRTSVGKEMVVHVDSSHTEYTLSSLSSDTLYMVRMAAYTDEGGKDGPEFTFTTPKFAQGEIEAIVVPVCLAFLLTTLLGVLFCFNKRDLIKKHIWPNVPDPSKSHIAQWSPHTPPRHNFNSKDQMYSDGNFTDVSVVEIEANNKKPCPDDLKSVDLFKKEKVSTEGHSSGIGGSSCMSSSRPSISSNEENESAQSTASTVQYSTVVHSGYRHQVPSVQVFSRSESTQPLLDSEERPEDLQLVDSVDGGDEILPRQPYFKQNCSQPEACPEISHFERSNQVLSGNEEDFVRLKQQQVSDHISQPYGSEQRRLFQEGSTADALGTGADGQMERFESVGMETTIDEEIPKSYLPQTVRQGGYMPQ

[3] = molecular target: T1, murine IL27 receptor (IL27Ra and gp130) …; remark: listed apart in the source
[4] = molecular target: human IL27 receptor (IL27Ra and gp130) on NCI-H929/GAS-Luc cells (human) (UniProt Q6UWB1); remark: listed apart in the source

human IL27 receptor (IL27Ra and gp130) on NCI-H929/GAS-Luc cells (human), sequence (Q6UWB1 33-636, chain 1 of 2): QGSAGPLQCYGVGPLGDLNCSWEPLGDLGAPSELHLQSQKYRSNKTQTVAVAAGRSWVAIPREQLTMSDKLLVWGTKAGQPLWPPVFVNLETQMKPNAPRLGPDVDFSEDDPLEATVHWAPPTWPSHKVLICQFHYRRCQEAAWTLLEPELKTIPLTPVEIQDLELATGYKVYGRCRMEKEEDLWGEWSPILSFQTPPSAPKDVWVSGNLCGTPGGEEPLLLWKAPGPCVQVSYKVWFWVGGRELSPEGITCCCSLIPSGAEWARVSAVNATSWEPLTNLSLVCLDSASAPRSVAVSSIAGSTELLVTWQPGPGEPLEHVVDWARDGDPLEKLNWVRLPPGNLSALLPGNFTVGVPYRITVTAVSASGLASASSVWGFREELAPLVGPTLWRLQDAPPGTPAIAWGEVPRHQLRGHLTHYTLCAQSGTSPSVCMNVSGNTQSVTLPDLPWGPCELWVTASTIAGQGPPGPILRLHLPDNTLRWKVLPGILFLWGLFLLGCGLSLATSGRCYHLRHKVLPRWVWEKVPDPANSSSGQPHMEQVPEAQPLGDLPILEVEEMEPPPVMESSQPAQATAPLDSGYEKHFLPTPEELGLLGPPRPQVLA
human IL27 receptor (IL27Ra and gp130) on NCI-H929/GAS-Luc cells (human), sequence (chain, as listed by the source, chain 2 of 2): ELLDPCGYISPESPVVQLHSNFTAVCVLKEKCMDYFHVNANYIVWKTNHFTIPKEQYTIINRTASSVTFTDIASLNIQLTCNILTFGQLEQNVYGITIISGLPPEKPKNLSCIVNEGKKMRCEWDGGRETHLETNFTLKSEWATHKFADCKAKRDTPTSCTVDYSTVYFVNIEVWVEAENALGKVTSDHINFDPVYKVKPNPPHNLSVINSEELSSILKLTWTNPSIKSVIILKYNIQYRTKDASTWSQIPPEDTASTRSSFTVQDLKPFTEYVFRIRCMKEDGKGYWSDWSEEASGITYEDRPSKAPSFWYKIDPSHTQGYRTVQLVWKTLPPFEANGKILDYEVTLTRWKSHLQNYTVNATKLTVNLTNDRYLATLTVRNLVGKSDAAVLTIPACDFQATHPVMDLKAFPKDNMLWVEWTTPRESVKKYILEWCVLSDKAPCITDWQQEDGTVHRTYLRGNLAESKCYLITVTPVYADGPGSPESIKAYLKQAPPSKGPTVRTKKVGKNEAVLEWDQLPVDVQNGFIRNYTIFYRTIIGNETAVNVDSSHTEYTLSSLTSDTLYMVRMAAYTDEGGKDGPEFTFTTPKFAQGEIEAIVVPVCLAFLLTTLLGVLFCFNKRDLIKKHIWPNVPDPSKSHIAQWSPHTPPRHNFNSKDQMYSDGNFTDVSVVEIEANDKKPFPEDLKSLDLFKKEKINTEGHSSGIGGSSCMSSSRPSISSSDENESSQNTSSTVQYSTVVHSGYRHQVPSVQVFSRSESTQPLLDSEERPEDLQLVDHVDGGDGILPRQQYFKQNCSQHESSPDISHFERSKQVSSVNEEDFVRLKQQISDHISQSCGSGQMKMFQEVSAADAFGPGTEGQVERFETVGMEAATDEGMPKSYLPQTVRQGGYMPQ

Molecule: human hEBI3×hp28-Fc (monovalent) (Fc fusion)
- EC50 (M), GAS luciferase, NCI-H929/GAS-Luc cells [1]: 1.27e-10 M
- FOLD INDUCTION, GAS luciferase, NCI-H929/GAS-Luc cells [1]: 14.3 fold

B1: IL27M2, Mouse p28-(GGGGS)3-Fc (Knob) with Mouse EBI3-(GGGGS)3-Fc (Hole/star) (Fc fusion)
chain 1: FPTDPLSLQELRREFTVSLYLARKLLSEVQGYVHSFAESRLPGVNLDLLPLGYHLPNVSLTFQAWHHLSDSERLCFLATTLRPFPAMLGGLGTQGTWTSSEREQLWAMRLDLRDLHRHLRFQVLAAGFKCSKEEEDKEEEEEEEEEEKKLPLGALGGPNQVSSQVSWPQLLYTYQLLHSLELVLSRAVRDLLLLSLPRRPGSAWDSGGGGSGGGGSGGGGSESKYGPPCPPCPAPPVAGPSVFLFPPKPKDTLMISRTPEVTCVVVDVSQEDPEVQFNWYVDGVEVHNAKTKPREEQFNSTYRVVSVLTVLHQDWLNGKEYKCKVSNKGLPSSIEKTISKAKGQPREPQVYTLPPSQEEMTKNQVSLWCLVKGFYPSDIAVEWESNGQPENNYKTTPPVLDSDGSFFLYSRLTVDKSRWQEGNVFSCSVMHEALHNHYTQKSLSLSLGK
chain 2: YTETALVALSQPRVQCHASRYPVAVDCSWTPLQAPNSTRSTSFIATYRLGVATQQQSQPCLQRSPQASRCTIPDVHLFSTVPYMLNVTAVHPGGASSSLLAFVAERIIKPDPPEGVRLRTAGQRLQVLWHPPASWPFPDIFSLKYRLRYRRRGASHFRQVGPIEATTFTLRNSKPHAKYCIQVSAQDLTDYGKPSDWSLPGQVESAPHKPGGGGSGGGGSGGGGSESKYGPPCPPCPAPPVAGPSVFLFPPKPKDTLMISRTPEVTCVVVDVSQEDPEVQFNWYVDGVEVHNAKTKPREEQFNSTYRVVSVLTVLHQDWLNGKEYKCKVSNKGLPSSIEKTISKAKGQPREPQVYTLPPSQEEMTKNQVSLSCAVKGFYPSDIAVEWESNGQPENNYKTTPPVLDSDGSFFLVSRLTVDKSRWQEGNVFSCSVMHEALHNRFTQKSLSLSPGK
- EC50, luciferase activity, MC9/STAT3-Luc reporter cells [2]: ~0.0032 nM
- EC50, phosphorylation of STAT1 in CD4+ T-cells [2]: ~0.0224 µg/mL

B2: IL27M1, Mouse EBI3-(GGGS)4-p28-(GGGGS)3-Fc (Fc fusion)
chain: YTETALVALSQPRVQCHASRYPVAVDCSWTPLQAPNSTRSTSFIATYRLGVATQQQSQPCLQRSPQASRCTIPDVHLFSTVPYMLNVTAVHPGGASSSLLAFVAERIIKPDPPEGVRLRTAGQRLQVLWHPPASWPFPDIFSLKYRLRYRRRGASHFRQVGPIEATTFTLRNSKPHAKYCIQVSAQDLTDYGKPSDWSLPGQVESAPHKPGGGSGGGSGGGSGGGSFPTDPLSLQELRREFTVSLYLARKLLSEVQGYVHSFAESRLPGVNLDLLPLGYHLPNVSLTFQAWHHLSDSERLCFLATTLRPFPAMLGGLGTQGTWTSSEREQLWAMRLDLRDLHRHLRFQVLAAGFKCSKEEEDKEEEEEEEEEEKKLPLGALGGPNQVSSQVSWPQLLYTYQLLHSLELVLSRAVRDLLLLSLPRRPGSAWDSGGGGSGGGGSGGGGSESKYGPPCPPCPAPPVAGPSVFLFPPKPKDTLMISRTPEVTCVVVDVSQEDPEVQFNWYVDGVEVHNAKTKPREEQFNSTYRVVSVLTVLHQDWLNGKEYKCKVSNKGLPSSIEKTISKAKGQPREPQVYTLPPSQEEMTKNQVSLTCLVKGFYPSDIAVEWESNGQPENNYKTTPPVLDSDGSFFLYSRLTVDKSRWQEGNVFSCSVMHEALHNHYTQKSLSLSLGK
- EC50 (M), STAT3 luciferase, MC9 cells [3]: 1.01e-09 M
- FOLD INDUCTION, STAT3 luciferase, MC9 cells [3]: 2.95 fold
- EC50, luciferase activity, MC9/STAT3-Luc reporter cells [2]: ~0.48 nM
- EC50, phosphorylation of STAT1 in CD4+ T-cells [2]: ~2 µg/mL

B3: Recombinant human IL27 (R&D Systems cat# 2526-IL-010/CF), Human EBI3-…-Human p28-6-His tag (ligand)
chain: RKGPPAALTLPRVQCRASRYPIAVDCSWTLPPAPNSTSPVSFIATYRLGMAARGHSWPCLQQTPTSTSCTITDVQLFSMAPYVLNVTAVHPWGSSSSFVPFITEHIIKPDPPEGVRLSPLAERQLQVQWEPPGSWPFPEIFSLKYWIRYKRQGAARFHRVGPIEATSFILRAVRPRARYYVQVAAQDLTDYGELSDWSLPATATMSLGKGSGSSRGGSGSGGSGGGGSKLAGVWGFPRPPGRPQLSLQELRREFTVSLHLARKLLSEVRGQAHRFAESHLPGVNLYLLPLGEQLPDVSLTFQAWRRLSDPERLCFISTTLQPFHALLGGLGTQGRWTNMERMQLWAMRLDLRDLQRHLRFQVLAAGFNLPEEEEEEEEEEEEERKGLLPGALGSALQGPAQVSWPQLLSTYRLLHSLELVLSRAVRELLLLSKAGHSVWPLGFPTLSPQPHHHHHH
- EC50 (M), GAS luciferase, NCI-H929/GAS-Luc cells [4]: 3.34e-10 M
- FOLD INDUCTION, GAS luciferase, NCI-H929/GAS-Luc cells [4]: 12.3 fold

Source: patent US20230110958A1 (Regeneron, published 2023)
